Test results published in PMC6508567 (2018).

B1: β-amylase WT (enzyme)
chain: MEVNVKGNYVQVYVMLPLDAVSVNNRFEKGDELRAQLRKLVEAGVDGVMVDVWWGLVEGKGPKAYDWSAYKQLFELVQKAGLKLQAIMSFHQCGGNVGDAVNIPIPQWVRDVGTCDPDIFYTDGHGTRNIEYLTLGVDNQPLFHGRSAVQMYADYMTSFRENMKEFLDAGVIVDIEVGLGPAGEMRYPSYPQSHGWSFPGIGEFICYDKYLQADFKAAAAAVGHPEWEFPNDVGQYNDTPERTQFFRDNGTYLSEKGRFFLAWYSNNLIKHGDRILDEANKVFLGYKVQLAIKISGIHWWYKVPSHAAELTAGYYNLHDRDGYRTIARMLKRHRASINFTCAEMRDSEQSSQAMSAPEELVQQVLSAGWREGLNVACENALPRYDPTAYNTILRNARPHGINQSGPPEHKLFGFTYLRLSNQLVEGQNYANFKTFVDRMHANLPRDPYVDPMAPLPRSGPEISIEMILQAAQPKLQPFPFQEHTDLPVGPTGGMGGQAEGPTCGMGGQVKGPTGGMGGQAEDPTSGIGGELPATM
B2: serpin Z4 (natural protein)
chain: MATTLATDVRLSIAHQTRFALRLRSAISSNPERAAGNVAFSPLSLHVALSLITAGAAATRDQLVAILGDGGAGDAKELNALAEQVVQFVLANESSTGGPRIAFANGIFVDASLSLKPSFEELAVCQYKAKTQSVDFQHKTLEAVGQVNSWVEQVTTGLIKQILPPGSVDNTTKLILGNALYFKGAWDQKFDESNTKCDSFHLLDGSSIQTQFMSSTKKQYISSSDNLKVLKLPYAKGHDKRQFSMYILLPGAQDGLWSLAKRLSTEPEFIENHIPKQTVEVGRFQLPKFKISYQFEASSLLRALGLQLPFSEEADLSEMVDSSQGLEISHVFHKSFVEVNEEGTEAGAATVAMGVAMSMPLKVDLVDFVANHPFLFLIREDIAGVVVFVGHVTNPLISA

How the values were obtained:
[1] = molecular target: B2; assay: SPR; serpin Z4 immobilised
[2] = molecular target: B1; assay: SPR; β-amylase immobilised
[3] = molecular target: B1; assay: MST; β-amylase labelled, serpin Z4 titrated

| Binder | koff [1] [s⁻¹] | koff [2] [s⁻¹] | Kd [3] [nM] |
| --- | --- | --- | --- |
| B1 | 0.00243 | – | – |
| B2 | – | 0.00263 | 215 |
